38 substances from the array DNA melting data of Ke et al. can be followed below.

A short description of series [1]: melting temperature; UV melt of duplexes.
Series [2] in a line: melting temperature; melt of duplexes. To be noted: sodium 0.0675 M; strand 1 µM.

By Tm is commonly meant the temperature at which the thermal transition is half complete. On to “AACGCGCGTAGAGTAATTATAA+TTATAATTACTCTACGCGCGTT ((((((((((((((((((((((+))))))))))))))))))))))”, for which the midpoint of thermal melting (Tm) in series [1] (sodium 0.12 M, strand 6 µM) was found to be 65 °C.

Turning to “CGCCGCTGCCGACTGGAGGAGCGCGGGACG+CGTCCCGCGCTCCTCCAGTCGGCAGCGGCG ((((((((((((((((((((((((((((((+))))))))))))))))))))))))))))))”, the Tm in series [1] (sodium 0.07 M, strand 2 µM) stood at 77.8 °C; in series [1] (sodium 0.12 M, strand 2 µM), 81.6 °C; in series [1] (sodium 0.22 M, strand 2 µM) it was 84.6 °C; in series [1] (sodium 0.62 M, strand 2 µM), 87.7 °C; in series [1] (sodium 1.02 M, strand 2 µM), 88.6 °C.

In the case of “AATATATATAGAGTGCGCGCAA+TTGCGCGCACTCTATATATATT ((((((((((((((((((((((+))))))))))))))))))))))”, the Tm in series [1] (sodium 0.12 M, strand 3.3 µM) amounted to 64.1 °C.

Consider “CGACGTGCATAATGTGCTG+CAGCACATAAAGCACGTCG ((((((((.(.((((((((+)))))))).).))))))))”, for which the melting temperature (Tm) in series [2] was 50.2 °C.

For the substance “CGACGTGCCGCATGTGCTG+CAGCACATACCGCACGTCG ((((((((.(.((((((((+)))))))).).))))))))”, the Tm in series [2] came out at 48.9 °C.

As to “CGACGTGCAGCATGTGCTG+CAGCACATTCTGCACGTCG ((((((((((.((((((((+)))))))).))))))))))”, in series [2], the Tm amounted to 55 °C.

For “CGACGTGCAACATGTGCTG+CAGCACATGGTGCACGTCG (((((((((.(((((((((+))))))))).)))))))))”, in series [2], the midpoint of thermal melting (Tm) came out at 60 °C.

With “CGACGTGCGGTATGTGCTG+CAGCACATGGCGCACGTCG (((((((((..((((((((+))))))))..)))))))))”, in series [2], the Tm is 59.9 °C.

For “CGACGTGCGGCATGTGCTG+CAGCACATACTGCACGTCG ((((((((.(.((((((((+)))))))).).))))))))”, the Tm in series [2] turned out to be 54.2 °C.

Regarding “CGACGTGCTTAATGTGCTG+CAGCACATATCGCACGTCG ((((((((...((((((((+))))))))...))))))))”, the Tm in series [2] worked out at 48 °C.

On to “CGACGTGCTATATGTGCTG+CAGCACATCCAGCACGTCG (((((((((..((((((((+))))))))..)))))))))”, for which, in series [2], the midpoint of thermal melting (Tm) amounted to 50.2 °C.

Turning to “CGACGTGCGGTATGTGCTG+CAGCACATTTAGCACGTCG ((((((((...((((((((+))))))))...))))))))”, the melting temperature (Tm) in series [2] turned out to be 54.5 °C.

Consider “CGACGTGCCCAATGTGCTG+CAGCACATGTAGCACGTCG ((((((((...((((((((+))))))))...))))))))”, for which, in series [2], the midpoint of thermal melting (Tm) was 50.6 °C.

As to “CGACGTGCACGATGTGCTG+CAGCACATCAAGCACGTCG ((((((((..(((((((((+)))))))))..))))))))”, the melting temperature (Tm) in series [2] is 51.2 °C.

In the case of “CGACGTGCTCGATGTGCTG+CAGCACATTATGCACGTCG ((((((((...((((((((+))))))))...))))))))”, the Tm in series [2] amounted to 49.6 °C.

Regarding “CGACGTGCCCTATGTGCTG+CAGCACATAAGGCACGTCG (((((((((.(((((((((+))))))))).)))))))))”, in series [2], the midpoint of thermal melting (Tm) is 55.6 °C.

Consider “CGACGTGCTGCATGTGCTG+CAGCACATCTCGCACGTCG ((((((((...((((((((+))))))))...))))))))”, for which the Tm in series [2] was found to be 49.2 °C.

For “CGACGTGCGGAATGTGCTG+CAGCACATTCAGCACGTCG ((((((((.((((((((((+)))))))))).))))))))”, the Tm in series [2] stood at 60.2 °C.

For “CGACGTGCCCTATGTGCTG+CAGCACATTATGCACGTCG ((((((((...((((((((+))))))))...))))))))”, in series [2], the midpoint of thermal melting (Tm) stood at 48 °C.

Consider “CGACGTGCAGGATGTGCTG+CAGCACATATGGCACGTCG ((((((((...((((((((+))))))))...))))))))”, for which, in series [2], the melting temperature (Tm) came out at 51.3 °C.

Regarding “CGACGTGCTCCATGTGCTG+CAGCACATACAGCACGTCG (((((((((..((((((((+))))))))..)))))))))”, in series [2], the midpoint of thermal melting (Tm) was 49.6 °C.

With “CGACGTGCGGCATGTGCTG+CAGCACATAGCGCACGTCG (((((((((..((((((((+))))))))..)))))))))”, the Tm in series [2] turned out to be 55.9 °C.

For “CGACGTGCCGTATGTGCTG+CAGCACATTGGGCACGTCG (((((((((..((((((((+))))))))..)))))))))”, the Tm in series [2] worked out at 54.7 °C.

On to “CGACGTGCTAGATGTGCTG+CAGCACATTAAGCACGTCG (((((((((..((((((((+))))))))..)))))))))”, for which the Tm in series [2] worked out at 53.3 °C.

As to “CGACGTGCGCAATGTGCTG+CAGCACATGGAGCACGTCG ((((((((.(.((((((((+)))))))).).))))))))”, in series [2], the melting temperature (Tm) is 60.2 °C.

On to “CGACGTGCAGCATGTGCTG+CAGCACATCGTGCACGTCG (((((((((..((((((((+))))))))..)))))))))”, for which the melting temperature (Tm) in series [2] is 44.1 °C.

Consider “CGACGTGCCAAATGTGCTG+CAGCACATACCGCACGTCG ((((((((...((((((((+))))))))...))))))))”, for which the melting temperature (Tm) in series [2] was determined as 47.3 °C.

Take “CGACGTGCCCCATGTGCTG+CAGCACATCCAGCACGTCG ((((((((...((((((((+))))))))...))))))))”: the Tm in series [2] was 47.4 °C.

As to “CGACGTGCATCATGTGCTG+CAGCACATTACGCACGTCG ((((((((.(.((((((((+)))))))).).))))))))”, in series [2], the Tm came out at 48.1 °C.

With “CGACGTGCCAGATGTGCTG+CAGCACATTCAGCACGTCG ((((((((...((((((((+))))))))...))))))))”, the Tm in series [2] worked out at 50.7 °C.

With “CGACGTGCTCGATGTGCTG+CAGCACATCGAGCACGTCG (((((((((((((((((((+)))))))))))))))))))”, in series [2], the melting temperature (Tm) was determined as 66.6 °C.

Consider “CGACGTGCATGATGTGCTG+CAGCACATTGAGCACGTCG ((((((((...((((((((+))))))))...))))))))”, for which the midpoint of thermal melting (Tm) in series [2] was found to be 50.7 °C.

“CGACGTGCCCGATGTGCTG+CAGCACATCCTGCACGTCG ((((((((..(((((((((+)))))))))..))))))))”: the Tm in series [2] worked out at 52.5 °C.

On to “CGACGTGCGGAATGTGCTG+CAGCACATACTGCACGTCG ((((((((.(.((((((((+)))))))).).))))))))”, for which, in series [2], the Tm stood at 54.3 °C.

For “CGACGTGCTAGATGTGCTG+CAGCACATTTTGCACGTCG ((((((((.(.((((((((+)))))))).).))))))))”, the Tm in series [2] is 52 °C.

On to “CGACGTGCCGTATGTGCTG+CAGCACATCTAGCACGTCG ((((((((...((((((((+))))))))...))))))))”, for which the Tm in series [2] worked out at 49.1 °C.

Take “CGACGTGCAGAATGTGCTG+CAGCACATCAAGCACGTCG ((((((((...((((((((+))))))))...))))))))”: the Tm in series [2] came to 50.6 °C.

As to “CGACGTGCTGGATGTGCTG+CAGCACATAATGCACGTCG ((((((((...((((((((+))))))))...))))))))”, in series [2], the melting temperature (Tm) is 50.7 °C.
